Reference: patent publication CN115819587A (BEIJING DONGFANG BIOTECH CO LTD; BEIJING JINGYI TAIXIANG …, dated 2023)

B1: MA-1 鼠源全抗分子 (mouse IgG2a / mouse Ck full antibody) (antibody, V domains shown)
VH: EVKLEESGGGLVKPGGSLKLSCAASGFAFSDYDMSWVRQTPEKRLEWVATISSGGSYTYYPDSVKGRFTISRDNARNTLYLQMSSLRSEDTALYYCTSPRQVGLRKAFDYWGQGTTLTVSS
VL: DIVVTQSPALMSASPGEKVTMTCSASSSVSYMYWYQQKPRSSPKSWIYLTSNLASGVPARFSGSGSGTSYSLTISSMEAEDAATYYCQQWSSNPFTFGSGTKLEIKR
notes: plain joining would double 'AD' at the junction; also called MA-1鼠源抗体; 抗NKG2A单克隆抗体MA-1
B2: MA-1 噬菌体单克隆抗体 (phage-displayed single-chain antibody MA-1) (scFv)
chain: EVKLEESGGGLVKPGGSLKLSCAASGFAFSDYDMSWVRQTPEKRLEWVATISSGGSYTYYPDSVKGRFTISRDNARNTLYLQMSSLRSEDTALYYCTSPRQVGLRKAFDYWGQGTTLTVSSDIVVTQSPALMSASPGEKVTMTCSASSSVSYMYWYQQKPRSSPKSWIYLTSNLASGVPARFSGSGSGTSYSLTISSMEAEDAATYYCQQWSSNPFTFGSGTKLEIKRAD

What was measured:
huFc-NKG2C/CD94 = target: T1, huFc-NKG2C/CD94 (UniProt P26717 94-231; Q13241 32-179, limits assumed); assay: ELISA, dilution series of MA-1 on huFc-NKG2C/CD94, anti-mouse Ig-HRP
T1 construct: Construct known only by its name; not shown: human Fc (huFc)

huFc-NKG2E/CD94 = target: T2, huFc-NKG2E/CD94 (UniProt Q07444 94-240; Q13241 32-179, limits assumed); assay: ELISA, dilution series of MA-1 on huFc-NKG2E/CD94, anti-mouse Ig-HRP
T2 construct: Construct known only by its name; not shown: human Fc (huFc)

huFc-NKG2A/CD94 = target: T3, huFc-NKG2A/CD94 (UniProt P26715 94-233; Q13241 32-179, limits assumed); assay: phage supernatant ELISA on huFc-NKG2A/CD94 against huFc-NKG2C/CD94 and huFc-NKG2E/CD94; criterion of selection met by MA-1
T3 construct: Construct known only by its name; the order of the pieces follows the name huFc-NKG2A; not shown: human Fc (huFc)
T3 sequence (P26715 94-233 limits assumed, chain 1 of 2): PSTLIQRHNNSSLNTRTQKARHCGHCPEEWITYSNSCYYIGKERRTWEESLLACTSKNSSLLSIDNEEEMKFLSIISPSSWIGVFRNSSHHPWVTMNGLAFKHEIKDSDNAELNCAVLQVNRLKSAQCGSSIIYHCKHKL
T3 sequence (Q13241 32-179 limits assumed, chain 2 of 2): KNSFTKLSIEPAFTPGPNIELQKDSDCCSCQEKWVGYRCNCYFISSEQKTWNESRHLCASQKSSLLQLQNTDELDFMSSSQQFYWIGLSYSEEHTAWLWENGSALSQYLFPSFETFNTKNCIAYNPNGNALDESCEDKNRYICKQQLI

T1 sequence (P26717 94-231 limits assumed, chain 1 of 2): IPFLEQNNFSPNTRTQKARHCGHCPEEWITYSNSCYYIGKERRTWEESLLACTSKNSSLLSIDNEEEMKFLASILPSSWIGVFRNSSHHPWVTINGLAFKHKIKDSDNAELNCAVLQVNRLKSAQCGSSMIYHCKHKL
T1 sequence (Q13241 32-179 limits assumed, chain 2 of 2): as the sequence (Q13241 32-179 limits assumed, chain 2 of 2) above
T2 sequence (Q07444 94-240 limits assumed, chain 1 of 2): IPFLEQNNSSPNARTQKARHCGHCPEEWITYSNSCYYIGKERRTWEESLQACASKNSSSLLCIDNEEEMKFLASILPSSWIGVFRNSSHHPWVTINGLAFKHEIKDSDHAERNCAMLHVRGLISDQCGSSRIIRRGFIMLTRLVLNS
T2 sequence (Q13241 32-179 limits assumed, chain 2 of 2): as the sequence (Q13241 32-179 limits assumed, chain 2 of 2) above

Binder | binding result (huFc-NKG2C/CD94) | binding result (huFc-NKG2E/CD94) | OD450nm ratio, NKG2A against NKG2C/E (huFc-NKG2A/CD94)
B1 | no binding | no binding | –
B2 | – | – | ≥ 3 fold
